The source of these data is the nanobody polyreactivity screen of Harvey et al. (2022).

The series can be described thus: yeast display, Sf9 membrane polyspecificity reagent, FACS + sequencing; frameworks hold sequencing errors. The procedure, abridged: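 In a synthetic yeast display library (Saccharomyces cerevisiae BJ5465), nanobody expression was induced with galactose for 36–48 hours. FACS gates were set low and high (top ~1%) using anti-HA fluorescence for expression and streptavidin fluorescence for binding of the Sf9 membrane reagent. Each polyreactivity label is drawn from the gate of origin.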
As for “QFQLVESGGGLVQAGGSLRLSCAASGNTFINYAMGWYRQATRKEREVVAAISKRGGSTYYADSVKGRFTISRDNAKNTVYLQMNSLKPEDTAVYYCAARLKTYKEGDYCGQGTQVTVSS”, the “polyreactivity (PSR sort gate)” value is recorded as “high polyreactivity”.
Then “QFQLVESGGGLVQAGGSLRLSCAASGRIFKTYTMGWYRQAPGKERELVAVITSGGGTYYADSVKGRFTISRDNAKNTVYLQMNSLKPEDTAVYYCAARGMESPYGYWGQGTQVTVSS”, with “low polyreactivity”; and “QFQLVESGGGLVQAGGSLRLSCAASGRIFSLNAMGWYRQAPGKESELVAAITSTGGTTYYADSVKGRFTISRDNAKNTVYLQMNSLKPEDTAVYYCAADYYSYAWHGWYYSDHYDYWGQGTQVTVSS”, with “low polyreactivity”.
In the case of “QFQLVESGGGLVQAGGSLRLSCAASGRIFTYYAMGWYRQAPGKEWELVAAISTSGGSTYYADSVKGRFTISRDNANNTVYLQMNSLKPEDTAVYYCAKVYPPRYYRDYNYWGQGTQVTVSS”, the “polyreactivity (PSR sort gate)” value is recorded as “high polyreactivity”.
In the case of “QFQLVESGGGLVQAGGSLRLSCAASGRIFVINAMGWYRKATGIETELVAAISSSGGSTSYADSVKGRFTISRDNAKNTVYLQMNSLKPEDTAVYYCADKPRVRRDDGYYWGQGTLVTVSS”, the “polyreactivity (PSR sort gate)” value is given as “high polyreactivity”.
Then “QFQLVESGGGLVQAGGSLRLSCAASGRIFYPYAMGWYRQATGKEREFVATIRARGGDSTSYADSVKGRFTISRDNAKNTVYLQMNSLKPEDTGVYYCAALFYTYRWRYYVYHLDYWGHGTQVTVSS”, with “low polyreactivity”; and “QFQLVESGGGLVQAGGSLRLSCAASGRIFYYNAMGWDRQAPGKERELVASISTGGGSTYYADSVKGRFTISRDNAKNTVYLQMNSLKTEDTAVYYCAARALTRSVPYGFYYWGQGTQVTVSS”, with “high polyreactivity”.
On to “QFQLVESGGGLVQAGGSLRLSCAASGRTFAWNAMGWYRQAPGKERELVAAISYNGGRTYYADSVKGRFTISRDNAKNTVYFQMNSLKPEDTAVYYCAAQRYGYWGQGTQVTVSS”, for which the “polyreactivity (PSR sort gate)” value is “high polyreactivity”.
Take “QFQLVESGGGLVQAGGSLRLSCAASGRTFGFYAMGWYRQAPGKERELVASITWRGGRTYYADSVKGRFTISRDNAKNTVYLQMNSLKPEDTAVYYCAAVTFSYDGYDYWGQGTQVTVSS”: the “polyreactivity (PSR sort gate)” value is recorded as “low polyreactivity”.
The result for “QFQLVESGGGLVQAGGSLRLSCAASGRTFGVYAMGWYRQAPGKERELVAAIRWSGGGTYYADSVKGRFTISRDNAKNTVYLQMNSLKPEDTAVYYCAADSLLVLFDYWGQGTQVTVSA” reads “low polyreactivity”; that for “QFQLVESGGGLVQAGGSLRLSCAASGRTFRGYAMGWYRQAPGKERELVPAITWRGGSTYYADSVKGRFTISRDNAKNTVYLQMKSLKPEDTAVYYCNTLVWSYLGGYYSRYDYWGQGTQVTVSS”, “high polyreactivity”.
In the case of “QFQLVESGGGLVQAGGSLRLSCAASGRTFRGYAMGWYRQATGTERELVAAITWRGGSTYYADSVKGRFTISRDNEKNTVYLQMNSLKPEDTAVYYCNTLVWSYLGGYYSRYDYWGQGTQVTVSS”, the “polyreactivity (PSR sort gate)” value is on record as “high polyreactivity”.
Turning to “QFQLVESGGGLVQAGGSLRLSCAASGRTLYGYAMGWYRQAPGKERELVAVISGRGGSTYYADSVKGRFTISRDNAKNTVYLQMNSLKPEDTAAYFCAAVVHQGLSVRYGYWGQGTQVTVSS”, the “polyreactivity (PSR sort gate)” value is on record as “high polyreactivity”.
With “QFQLVESGGGLVQAGGSLRLSCAASGSIFDYYDLGWSRKAPGKERELGAAINWSGGITYYADSVKGRFTISRDNAKNTVYLQMNSLKPEDTGVYYCAADWYQWVYSSSITSFDYWGQGTQVTVSS”, the “polyreactivity (PSR sort gate)” value was “low polyreactivity”.
Then “QFQLVESGGGLVQAGGSLRLSCAASGSIFGGYAMGWYRQAPGKEREFVAAITRSGVSTYYADSVKGRFTISRDNEKNTVYLQMNSLKPEDTAVYYCAADQTAWRLRVYLRQYRYEYWGQGTQVTVSS”, with “high polyreactivity”; and “QFQLVESGGGLVQAGGSLRLSCAASGSIFGGYAMGWYRQAPGKERELVAAISYRGASTYYADSVKGRFTISRDNAKNTVYLLMNSLKPEDTAVYYCAVAARTRARFLYGYDYWGQGTQVTVSS”, with “low polyreactivity”; and “QFQLVESGGGLVQAGGSLRLSCAASGSIFKRYAMGWYRQAAGKERELVAAISSRGGNTYYADSVKGRFTISRDNAKNTVYLQMNSLKPEDTAVYYCAAYLWKSKRKLDYWGQGTQVTVSS”, with “high polyreactivity”.
Then “QFQLVESGGGLVQAGGSLRLSCAASGSIFKYYVMGWYRQAPGNERELVATITSDGGTNYADSVKGRFTISRDNAKNTVYLQMNSLKPEDTAVYYCNAASRRGSRKQAKYDYWGQGTQVTVSS”, with “low polyreactivity”.
The result for “QFQLVESGGGLVQAGGSLRLSCAASGSIFQSYAMVWYRQAPGKERELVAAITRSGGRTYYADSVKGRFTISRDNAKNTVYLQMNSLKPEDTAVYFCAAFGWGYGYWGQGTQVTVSS” reads “high polyreactivity”; that for “QFQLVESGGGLVQAGGSLRLSCAASGSTFGVYAMGWYRQAPGKERELVATINSGGSTNYADSVKGRFTISRDNAKNTVYLQMNSLKPEDTAVYYCAAGPFWQDFYVYEYDYWGQGTQVTVSS”, “low polyreactivity”.
For the sequence “QFQLVESGGGLVQAGGSLRLSCAASGSTFNYNAMGWYRQAPGIERELVAAISSSAGSTYYADSVKGRFTISRDNAKNTVYLQMNILKPEDTAVYYCANGGSSRVRTEGDYWGQGTQVTVSS”, the “polyreactivity (PSR sort gate)” value was “low polyreactivity”.
Consider “QFQLVESGGGLVQAGGSLRLSCAASGSTFVYNAMGWDRHAPGKERELVAAISRGGGITYYADSVKGRFTISRDKAKNSVYFQMHSLKPEDTAVYYCQYLSRGLNTYRSSQGDDDYWGHGTQVTVSS”, for which the “polyreactivity (PSR sort gate)” value is reported as “high polyreactivity”.
The result for “QFQLVESGGGLVQAGGSLRLSCAASRRTFTYYDMGWYRQAPGNEGELVSAISRRGGSTYYADSVKGRFTISRDNAKNTVYFQMNSLKPEDTAVYYCAAEVRLFSYTYSFFRYEYWGQGTHVTVSS” reads “high polyreactivity”; that for “QFQLVESGGGLVQAGGSLRLSCAAYGSIFMYYAMGWYIQAPGKERELVAAIRRGGNTNYADSVKGRFTISRDNAKNTVYLQMNSLKPEDTAVYYCAAAQYSRYSRVPNYYAGTYYYWGQGTQVTVSS”, “low polyreactivity”.
For “QFQLVESGGGLVQAGGSLRLSCESSGFTFYKYAIGSYRKAPGKERELVAAISRRGTSTYYADSVKGRFTISRDNAKNTVYLQMNSLNPEDTAVYYCNRDVSLSAFDYWGQGTQVTVSS”, the “polyreactivity (PSR sort gate)” value is recorded as “high polyreactivity”.
Then “QFQLVESGGGLVQAGGSLRLSCPASGRIFYYYSMGWYRQAPGKEREFVAAITGRGGSTYYADSVKGRFTISRDNAKYTVYLQMNSLKPEDTADYYCNAGQYFEYYGWYSRYGYWGQGTQVTVSS”, with “low polyreactivity”; and “QFQLVESGGGLVQAGGTLRLSCAASGSTFYHYPLGWYRQAPGTVRQLVARITSSSGSTYYADSVKGRFTISRDNAKNTVYLQMYSLKPEDTAVYYCAASYYIVPYLTYGYWGQGTQVTVSS”, with “low polyreactivity”; and “QFQLVESGGGLVQAGGTLRLSCAASRRIFIHYAMGLSRQAPGKERELVSAISASGGTTNYADSVKGRFTISRDNAKNTVYLQLKSQKQEDTAVYYCAAEGYRSWRGLLSRYYYWGQGTQVTVSS”, with “high polyreactivity”.
The result for “QFQLVESGGGLVQAGRSLRLSCAASGSIFWSNAMGWYRQAPGKERELVAAITTSDGSKYYADSVKGRFRISRDNANNTVYLQMNILKPEDTAVYYCAADTYFVCYGYYYWGQGTQVTVSS” reads “low polyreactivity”; that for “QFQLVESGGGLVQAGVVSLKLCCLRKHFIYYAMAWSRQAPWKDTELVAGINSGGSTKYADSVKRRFTISRDNAKNSVYLQMNSLKPEDTAVYYCNADSYSPVIQEYDYWGQGTQVTVSS”, “low polyreactivity”.
In the case of “QFQLVESGGGLVQSGGSLRLSCAASGFIFRSYAMGWYRQAPVKERELVAVISRRGVNTHYADSVKGRFTISRDNAKNTVYLQMNSLKPEDTAVYYCAKGLTAVGDYWGQGTQVTVSS”, the “polyreactivity (PSR sort gate)” value is recorded as “high polyreactivity”.
Turning to “QFQLVESGGRLDQAGGSLRLSCAASSSIFDDYAMGWYRQAPGKERELVAAISWSGGSTYYADSVQGRFTISRDNPNHTVYLQMNSLKREDTAVYYCAAYAYDYLYGEYYWGQGTQVTVSS”, the “polyreactivity (PSR sort gate)” value is listed as “low polyreactivity”.
The result for “QFQLVESGGRLVQPGGSLRLSCAASGGIFYGYAMGWYRKAPGKERELVAAISSTGGRTYYADSVKGRFTISRDNAKNTVYLQMNSLKPEDTAVSYCAAEDFTRQFEYWGQGTQVTVSS” reads “low polyreactivity”.
In the case of “QFQLVESGRGLVQAGGSLRLICAASGSIFIPYAMGWYRQAPGKERELVAAISSSGSTYYADSVKGRFTISRDNAKNTVYLQMNSLKPEDTAVYYCAAERHYSYSSYDYWGQGTQVTVSS”, the “polyreactivity (PSR sort gate)” value is “low polyreactivity”.
Then “QFQLVESGRGLVQAGGSLRLSCAASGRIFSYNTLGWYRQAPGKERELVAAITNNGGSTYYADSVKGRFTISRDNAKNTVYLQMNSLKPEDTAVYYCNRDRYPFYYAYNYWGQGTQVTVSS”, with “low polyreactivity”; and “QFQLVESGRGLVQAGGSLRLSCAASGRTFTYYAMGWYRQAPGNERELVAAIRYTGGSTHYADSVKGRFTISRENAKNTVYFQMNSLKPEDTAVYYCADRRAYTRGGTVYFGYYYWGQGTQVTVSS”, with “high polyreactivity”.
Then “QFQLVESGRGLVQAGGSLRLSCAASVRIFRGYAKGWYRQAPGKEREFVAANTKNGGSTYYADSVKGRFTISRDYAKNTVYLQMNSLKPEDTAVYYCAVRAWEPYTGKSDYWGQGTQVTVSS”, with “low polyreactivity”; and “QFQLVESGVGLVQAGGSLRLSCAASVRINYAYAMGWYRQTPGKERELVAAISTRGGNTYYADSVKGRFTISRDNAMNTVYLQINSLIPEETEVYYCNALSVSRRFGYDSWGQGTQVTVSS”, with “high polyreactivity”.
As to “QFQLVESVGGLFQAGGSLRLSCDASGIIFIGNAMGWYRQAPGKERELVAAISRRGGRTYYADSVKGRFTISRDNAKNTVYLQMNSLKPEDTAVYYCAKRYYSYGKSGYYYWGQGTQVTVSS”, the “polyreactivity (PSR sort gate)” value is reported as “high polyreactivity”.
The result for “QFQLVESVGGLVQAGGSLRLSCAASGRTGVNAMGWYRQAPRKERELVAAINNGDSTYYADSVKGRFTISRDNAKNTVYLQMNSLKPEDTAVYYCAARSALYPKYESWGQGTQVTVSS” reads “low polyreactivity”.
